The record followed here is paper doi:10.1101/209643 (bioRxiv, 2017).

The series concerns the molecule itself. Briefly: TIRF microscopy of filament polymerisation.

B1: Cdc11-containing septin complex (Cdc10, Cdc3, Cdc12, Cdc11), wild type (complex)
chain 1: MSAATATAAPVPPPVGISNLPNQRYKIVNEEGGTFTVMLCGESGLGKTTFINTLFQTVLKRADGQQHRQEPIRKTVEIDITRALLEEKHFELRVNVIDTPGFGDNVNNNKAWQPLVDFIDDQHDSYMRQEQQPYRTKKFDLRVHAVLYFIRPTGHGLKPIDIETMKRLSTRANLIPVIAKADTLTAQELQQFKSRIRQVIEAQEIRIFTPPLDADSKEDAKSGSNPDSAAVEHARQLIEAMPFAIVGSEKKFDNGQGTQVVARKYPWGLVEIENDSHCDFRKLRALLLRTYLLDLISTTQEMHYETYRRLRLEGHENTGEGNEDFTLPAIAPARKLSHNPRYKEEENALKKYFTDQVKAEEQRFRQWEQNIVNERIRLNGDLEEIQGKVKKLEEQVKSLQVKKSHLK
chain 2: MDPLSSVQPASYVGFDTITNQIEHRLLKKGFQFNIMVVGQSGLGKSTLINTLFASHLIDSATGDDISALPVTKTTEMKISTHTLVEDRVRLNINVIDTPGFGDFIDNSKAWEPIVKYIKEQHSQYLRKELTAQRERFITDTRVHAILYFLQPNGKELSRLDVEALKRLTEIANVIPVIGKSDTLTLDERTEFRELIQNEFEKYNFKIYPYDSEELTDEELELNRSVRSIIPFAVVGSENEIEINGETFRGRKTRWSAINVEDINQCDFVYLREFLIRTHLQDLIETTSYIHYEGFRARQLIALKENANSRSSAHMSSNAIQR
chain 3: MSLKEEQVSIKQDPEQEERQHDQFNDVQIKQESQDHDGVDSQYTNGTQNDDSERFEAAESDVKVEPGLGMGITSSQSEKGQVLPDQPEIKFIRRQINGYVGFANLPKQWHRRSIKNGFSFNLLCVGPDGIGKTTLMKTLFNNDDIEANLVKDYEEELANDQEEEEGQGEGHENQSQEQRHKVKIKSYESVIEENGVKLNLNVIDTEGFGDFLNNDQKSWDPIIKEIDSRFDQYLDAENKINRHSINDKRIHACLYFIEPTGHYLKPLDLKFMQSVYEKCNLIPVIAKSDILTDEEILSFKKTIMNQLIQSNIELFKPPIYSNDDAENSHLSERLFSSLPYAVIGSNDIVENYSGNQVRGRSYPWGVIEVDNDNHSDFNLLKNLLIKQFMEELKERTSKILYENYRSSKLAKLGIKQDNSVFKEFDPISKQQEEKTLHEAKLAKLEIEMKTVFQQKVSEKEKKLQKSETELFARHKEMKEKLTKQLKALEDKKKQLELSINSASPNVNHSPVPTKKKGFLR
chain 4: MSGIIDASSALRKRKHLKRGITFTVMIVGQSGSGRSTFINTLCGQQVVDTSTTILLPTDTSTEIDLQLREETVELEDDEGVKIQLNIIDTPGFGDSLDNSPSFEIISDYIRHQYDEILLEESRVRRNPRFKDGRVHCCLYLINPTGHGLKEIDVEFIRQLGSLVNIIPVISKSDSLTRDELKLNKKLIMEDIDRWNLPIYNFPFDEDEISDEDYETNMYLRTLLPFAIIGSNEVYEMGGDVGTIRGRKYPWGILDVEDSSISDFVILRNALLISHLHDLKNYTHEILYERYRTEALSGESVAAESIRPNLTKLNGSSSSSTTTRRNTNPFKQSNNINNDVLNPASDMHGQSTGENNETYMTREEQIRLEEERLKAFEERVQQELLLKRQELLQREKELREIEARLEKEAKIKQEE
Take B1: the binding result is reported as “binds”.

B2: Cdc11 D65T septin complex (Cdc10, Cdc3, Cdc12, Cdc11 D65T-GFP) (complex)
chain 1: MSAATATAAPVPPPVGISNLPNQRYKIVNEEGGTFTVMLCGESGLGKTTFINTLFQTVLKRADGQQHRQEPIRKTVEIDITRALLEEKHFELRVNVIDTPGFGDNVNNNKAWQPLVDFIDDQHDSYMRQEQQPYRTKKFDLRVHAVLYFIRPTGHGLKPIDIETMKRLSTRANLIPVIAKADTLTAQELQQFKSRIRQVIEAQEIRIFTPPLDADSKEDAKSGSNPDSAAVEHARQLIEAMPFAIVGSEKKFDNGQGTQVVARKYPWGLVEIENDSHCDFRKLRALLLRTYLLDLISTTQEMHYETYRRLRLEGHENTGEGNEDFTLPAIAPARKLSHNPRYKEEENALKKYFTDQVKAEEQRFRQWEQNIVNERIRLNGDLEEIQGKVKKLEEQVKSLQVKKSHLK
chain 2: MDPLSSVQPASYVGFDTITNQIEHRLLKKGFQFNIMVVGQSGLGKSTLINTLFASHLIDSATGDDISALPVTKTTEMKISTHTLVEDRVRLNINVIDTPGFGDFIDNSKAWEPIVKYIKEQHSQYLRKELTAQRERFITDTRVHAILYFLQPNGKELSRLDVEALKRLTEIANVIPVIGKSDTLTLDERTEFRELIQNEFEKYNFKIYPYDSEELTDEELELNRSVRSIIPFAVVGSENEIEINGETFRGRKTRWSAINVEDINQCDFVYLREFLIRTHLQDLIETTSYIHYEGFRARQLIALKENANSRSSAHMSSNAIQR
chain 3: MSLKEEQVSIKQDPEQEERQHDQFNDVQIKQESQDHDGVDSQYTNGTQNDDSERFEAAESDVKVEPGLGMGITSSQSEKGQVLPDQPEIKFIRRQINGYVGFANLPKQWHRRSIKNGFSFNLLCVGPDGIGKTTLMKTLFNNDDIEANLVKDYEEELANDQEEEEGQGEGHENQSQEQRHKVKIKSYESVIEENGVKLNLNVIDTEGFGDFLNNDQKSWDPIIKEIDSRFDQYLDAENKINRHSINDKRIHACLYFIEPTGHYLKPLDLKFMQSVYEKCNLIPVIAKSDILTDEEILSFKKTIMNQLIQSNIELFKPPIYSNDDAENSHLSERLFSSLPYAVIGSNDIVENYSGNQVRGRSYPWGVIEVDNDNHSDFNLLKNLLIKQFMEELKERTSKILYENYRSSKLAKLGIKQDNSVFKEFDPISKQQEEKTLHEAKLAKLEIEMKTVFQQKVSEKEKKLQKSETELFARHKEMKEKLTKQLKALEDKKKQLELSINSASPNVNHSPVPTKKKGFLR
chain 4: MSGIIDASSALRKRKHLKRGITFTVMIVGQSGSGRSTFINTLCGQQVVDTSTTILLPTDTSTEITLQLREETVELEDDEGVKIQLNIIDTPGFGDSLDNSPSFEIISDYIRHQYDEILLEESRVRRNPRFKDGRVHCCLYLINPTGHGLKEIDVEFIRQLGSLVNIIPVISKSDSLTRDELKLNKKLIMEDIDRWNLPIYNFPFDEDEISDEDYETNMYLRTLLPFAIIGSNEVYEMGGDVGTIRGRKYPWGILDVEDSSISDFVILRNALLISHLHDLKNYTHEILYERYRTEALSGESVAAESIRPNLTKLNGSSSSSTTTRRNTNPFKQSNNINNDVLNPASDMHGQSTGENNETYMTREEQIRLEEERLKAFEERVQQELLLKRQELLQREKELREIEARLEKEAKIKQEE
For the protein B2, the binding result is given as “binds”.

B3: Cdc12 T75A septin complex (Cdc10, Cdc3, Cdc12 T75A, Cdc11) (complex)
chain 1: MSAATATAAPVPPPVGISNLPNQRYKIVNEEGGTFTVMLCGESGLGKTTFINTLFQTVLKRADGQQHRQEPIRKAVEIDITRALLEEKHFELRVNVIDTPGFGDNVNNNKAWQPLVDFIDDQHDSYMRQEQQPYRTKKFDLRVHAVLYFIRPTGHGLKPIDIETMKRLSTRANLIPVIAKADTLTAQELQQFKSRIRQVIEAQEIRIFTPPLDADSKEDAKSGSNPDSAAVEHARQLIEAMPFAIVGSEKKFDNGQGTQVVARKYPWGLVEIENDSHCDFRKLRALLLRTYLLDLISTTQEMHYETYRRLRLEGHENTGEGNEDFTLPAIAPARKLSHNPRYKEEENALKKYFTDQVKAEEQRFRQWEQNIVNERIRLNGDLEEIQGKVKKLEEQVKSLQVKKSHLK
chain 2: MDPLSSVQPASYVGFDTITNQIEHRLLKKGFQFNIMVVGQSGLGKSTLINTLFASHLIDSATGDDISALPVTKTTEMKISTHTLVEDRVRLNINVIDTPGFGDFIDNSKAWEPIVKYIKEQHSQYLRKELTAQRERFITDTRVHAILYFLQPNGKELSRLDVEALKRLTEIANVIPVIGKSDTLTLDERTEFRELIQNEFEKYNFKIYPYDSEELTDEELELNRSVRSIIPFAVVGSENEIEINGETFRGRKTRWSAINVEDINQCDFVYLREFLIRTHLQDLIETTSYIHYEGFRARQLIALKENANSRSSAHMSSNAIQR
chain 3: MSLKEEQVSIKQDPEQEERQHDQFNDVQIKQESQDHDGVDSQYTNGTQNDDSERFEAAESDVKVEPGLGMGITSSQSEKGQVLPDQPEIKFIRRQINGYVGFANLPKQWHRRSIKNGFSFNLLCVGPDGIGKTTLMKTLFNNDDIEANLVKDYEEELANDQEEEEGQGEGHENQSQEQRHKVKIKSYESVIEENGVKLNLNVIDTEGFGDFLNNDQKSWDPIIKEIDSRFDQYLDAENKINRHSINDKRIHACLYFIEPTGHYLKPLDLKFMQSVYEKCNLIPVIAKSDILTDEEILSFKKTIMNQLIQSNIELFKPPIYSNDDAENSHLSERLFSSLPYAVIGSNDIVENYSGNQVRGRSYPWGVIEVDNDNHSDFNLLKNLLIKQFMEELKERTSKILYENYRSSKLAKLGIKQDNSVFKEFDPISKQQEEKTLHEAKLAKLEIEMKTVFQQKVSEKEKKLQKSETELFARHKEMKEKLTKQLKALEDKKKQLELSINSASPNVNHSPVPTKKKGFLR
chain 4: MSGIIDASSALRKRKHLKRGITFTVMIVGQSGSGRSTFINTLCGQQVVDTSTTILLPTDTSTEIDLQLREETVELEDDEGVKIQLNIIDTPGFGDSLDNSPSFEIISDYIRHQYDEILLEESRVRRNPRFKDGRVHCCLYLINPTGHGLKEIDVEFIRQLGSLVNIIPVISKSDSLTRDELKLNKKLIMEDIDRWNLPIYNFPFDEDEISDEDYETNMYLRTLLPFAIIGSNEVYEMGGDVGTIRGRKYPWGILDVEDSSISDFVILRNALLISHLHDLKNYTHEILYERYRTEALSGESVAAESIRPNLTKLNGSSSSSTTTRRNTNPFKQSNNINNDVLNPASDMHGQSTGENNETYMTREEQIRLEEERLKAFEERVQQELLLKRQELLQREKELREIEARLEKEAKIKQEE
On to B3, for which the binding result is “binds”.
